Test results published in the supplement of paper PMC12042874.
± gives the uncertainty stated by the source.

Experiment: amyloid nucleation score (Sup35N fusion, yeast selection) (log enrichment); library NNK2; higher = more nucleation; inactive = no reads after selection
Summary of the method: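 Output and input plasmid inserts were sequenced by Illumina after psi-negative yeast carrying Sup35N fused to peptides of 20 random codons had been induced 24 hours with 100 μM copper sulfate and grown 7 days at 30°C on medium lacking adenine and uracil. The nucleation score is the DiMSum log enrichment of output over input reads, centred on the mode score of non-aggregating sequences. Sequences with under 100 input reads were excluded.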

YQYDNPVLDKT
amyloid nucleation score: -0.178 ± 0.55

YQYRDLLVIVRSTMKSNVSV
amyloid nucleation score: 1.85 ± 0.1

YRAMESNRKRTPVKPVRCVV
amyloid nucleation score: 2.85 ± 0.11

YRASHCQSFQ
amyloid nucleation score: -1.2 ± 1.1

YRCIMVATMWGPRVELGR
amyloid nucleation score: 0.522 ± 0.39

YRFHSTKRCINSGDNC
amyloid nucleation score: -0.14 ± 1

YRFMTLVQHSYRCICLRLNA
amyloid nucleation score: -0.183 ± 0.33

YRHYIGRTSFTLY
amyloid nucleation score: -0.232 ± 1.1

YRLGLCGTFHINCVLINRDG
amyloid nucleation score: 5.2 ± 0.056

YRLIYFVVLFEFLSVNR
amyloid nucleation score: -0.089 ± 0.79

YRLPRLRMLTLFLCFTNVGK
amyloid nucleation score: 1.37 ± 0.2

YRPMEGRLKWSMTVLIVSLY
amyloid nucleation score: 0.497 ± 0.46

YRSFSLCMCFYLYRSDDTLC
amyloid nucleation score: -1.69 ± 1.1

YRSVVDA
amyloid nucleation score: 0.077 ± 0.54

YRVVM
amyloid nucleation score: 1.22 ± 0.69

YSARRSGNFPVVRLMMNDLT
amyloid nucleation score: -0.153 ± 0.65

YSCRIDF
amyloid nucleation score: 0.8 ± 0.54

YSDISQTRSASAIALGECRG
amyloid nucleation score: -0.879 ± 0.64

YSDSSSREMEQSGL
amyloid nucleation score: -0.199 ± 0.63

YSELIVTVIYKSTSSVRISC
amyloid nucleation score: -0.285 ± 0.33

YSFSRTYVLIIDGVS
amyloid nucleation score: 1.27 ± 0.18

YSGDNVNVVKQRPSCFLISR
amyloid nucleation score: -0.24 ± 0.74

YSGFIMWYLFDDTAQIP
amyloid nucleation score: -0.781 ± 1.1

YSGVSTTSFISDKPYRSRRR
amyloid nucleation score: -1.95 ± 1

YSIVNTNAGMTTRAWVTPTW
amyloid nucleation score: 1.38 ± 0.21

YSKTFTRRSWAHYTCHSVRL
amyloid nucleation score: 0.12 ± 0.41

YSLLILAPDFLNRHSSLGCI
amyloid nucleation score: -0.226 ± 1.1

YSMLQF
amyloid nucleation score: inactive

YSQFITGFGNNRHLTLSLAG
amyloid nucleation score: 0.389 ± 0.5

YSRGGKMVAARGCGSAEPDA
amyloid nucleation score: -0.64 ± 0.76

YSRKYSSAKVSMGDVCHNYM
amyloid nucleation score: -1.19 ± 0.76

YSSDYILSFNVNNTMVVSFE
amyloid nucleation score: 5.59 ± 0.078

YSSKFSYGMMCTRWDIVQYK
amyloid nucleation score: -0.451 ± 0.76

YSVQRCGYQDSKNNDVFLA
amyloid nucleation score: -0.043 ± 0.5

YTDIHESL
amyloid nucleation score: inactive

YTFWNVLC
amyloid nucleation score: 3.59 ± 0.084

YTGRSDVNSVLRV
amyloid nucleation score: 0.183 ± 1

YTGYGTWNLNIRNACNRVSW
amyloid nucleation score: inactive

YTKFANSHFIGLNRSCWSNE
amyloid nucleation score: -0.238 ± 0.8

YTLCTMKLREWNRTSTWPSL
amyloid nucleation score: -0.003 ± 0.39

YTSSCILGRTFPVLKCNIDY
amyloid nucleation score: -1.33 ± 0.76

YTSWDMYIEFIMSLQMYSVG
amyloid nucleation score: -0.729 ± 1.1

YTWSSYD
amyloid nucleation score: -1.14 ± 0.36

YTWVYPF
amyloid nucleation score: -1.01 ± 0.33

YVAVYSCLSRGCTLS
amyloid nucleation score: 9.186 ± 0.077

YVDAEARLFCGLLGLVFGDL
amyloid nucleation score: 5.47 ± 0.097

YVGSTLAFNNKIGGDYNMKS
amyloid nucleation score: -0.54 ± 1.1

YVIVVGWPR
amyloid nucleation score: 9.408 ± 0.073

YVLKIGSY
amyloid nucleation score: -0.617 ± 0.44

YVLSCDPLVRYQGLEDRQQS
amyloid nucleation score: 0.31 ± 0.62

YVMFRC
amyloid nucleation score: 1.31 ± 0.32

YVMNRCNR
amyloid nucleation score: -0.019 ± 0.54

YVMREDLGPGSQADPTSGRS
amyloid nucleation score: 0.912 ± 0.27

YVMSVRSAIRPIGSCVKKEY
amyloid nucleation score: 0.101 ± 0.76

YVNRVSCKVASRNCHHNGKS
amyloid nucleation score: -0.235 ± 1.1

YVPDVLTMYYGHTFTFDCGR
amyloid nucleation score: inactive

YVPYLLTLCCRCSSLGFR
amyloid nucleation score: -1.08 ± 1.1

YVRFEVLRWLLYRYTMVSQD
amyloid nucleation score: 0.661 ± 0.49

YVSSNWRNFRSVSQWWMLHV
amyloid nucleation score: 1.57 ± 0.1

YVTELIDCPGWTRRM
amyloid nucleation score: -0.006 ± 0.38

YVTPSNLARNKIQRFMASLI
amyloid nucleation score: 0.436 ± 0.8

YVVKIREIMVCSLVLDLRQR
amyloid nucleation score: 2.57 ± 0.069

YVVTYLRRRTLLAGSCISNY
amyloid nucleation score: 0.164 ± 0.8

YVYKCLQSQFFNALVTMISL
amyloid nucleation score: inactive

YWCLA
amyloid nucleation score: -0.737 ± 0.45

YWELQSHMGRFNSSCHLRWV
amyloid nucleation score: -1.7 ± 0.76

YWFHDCMRCCGNKILLLPDI
amyloid nucleation score: -0.712 ± 1.1

YWGNYLRSFIYVVTSWSHVF
amyloid nucleation score: inactive

YWLPRCKLVFV
amyloid nucleation score: 0.017 ± 0.25

YWNEP
amyloid nucleation score: 0.15 ± 0.37

YWQYCVDANFKQLMQRGKVF
amyloid nucleation score: 0.728 ± 0.62

YWVSCHVALGMALKSVLVPC
amyloid nucleation score: 0.009 ± 0.76

YWWGLENFTYCEDDAVSHKS
amyloid nucleation score: 0.294 ± 0.8

YYCRCYSGVLVTRAYQGNPE
amyloid nucleation score: -0.168 ± 1.1

YYEYQVIYSVCSMRI
amyloid nucleation score: -0.31 ± 1

YYGILEVG
amyloid nucleation score: inactive

YYGVKSAM
amyloid nucleation score: 0.074 ± 0.49

YYISKKSMMMDEVRCWMTWF
amyloid nucleation score: -0.524 ± 0.27

YYLSNSWVLYFCFGIFVTSQ
amyloid nucleation score: 1.88 ± 0.094

YYNKNLFCLFSVLEYKTTFL
amyloid nucleation score: 4.09 ± 0.056

YYQGRPWSSVLSFYCFHSYS
amyloid nucleation score: inactive

YYRIWYRVLIPSP
amyloid nucleation score: -0.43 ± 0.29

YYSAHAKSAGLM
amyloid nucleation score: 1.2 ± 0.48

YYTWDFWDIFRGWYRRDGIC
amyloid nucleation score: inactive

YYYDYVCLLWDLEEVSRHAL
amyloid nucleation score: -0.442 ± 1
